# Where a chain is given by its changes, count along the chain named. Names and notes keep the numbering of the source. Read-outs that look alike come from different tables or passages of the source.
# T1: CodY (Bacillus subtilis, UniProt P39779)
# T1 sequence (P39779 1-259): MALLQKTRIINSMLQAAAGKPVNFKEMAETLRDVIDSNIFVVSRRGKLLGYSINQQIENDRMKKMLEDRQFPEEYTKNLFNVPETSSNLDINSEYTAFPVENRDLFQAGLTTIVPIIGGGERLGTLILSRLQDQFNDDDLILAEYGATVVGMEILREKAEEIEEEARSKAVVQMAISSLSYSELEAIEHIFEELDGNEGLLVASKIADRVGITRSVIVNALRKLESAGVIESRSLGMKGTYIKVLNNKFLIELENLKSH
# B1: A207D (protein, UniProt P39779 2-259, looked up, variant A207D)
# Global transcriptional …: ALLQKTRIINSMLQAAAGKPVNFKEMAETLRDVIDSNIFVVSRRGKLLGYSINQQIENDRMKKMLEDRQFPEEYTKNLFNVPETSSNLDINSEYTAFPVENRDLFQAGLTTIVPIIGGGERLGTLILSRLQDQFNDDDLILAEYGATVVGMEILREKAEEIEEEARSKAVVQMAISSLSYSELEAIEHIFEELDGNEGLLVASKIDDRVGITRSVIVNALRKLESAGVIESRSLGMKGTYIKVLNNKFLIELENLKSH
# B2: V218A (protein, UniProt P39779 2-259, looked up, variant V218A)
# Global transcriptional …: B1 Global transcriptional … with D206A, V217A
# B3: R214E (protein, UniProt P39779 2-259, looked up, variant R214E)
# Global transcriptional …: B1 Global transcriptional … with D206A, R213E
# B4: WT: wild-type B. subtilis CodY, a GTP-activated repressor protein (protein)
# chain: B1 Global transcriptional … with D206A
# B5: R214K (protein, UniProt P39779 2-259, looked up, variant R214K)
# Global transcriptional …: B1 Global transcriptional … with D206A, R213K
# B6: S215F (protein, UniProt P39779 2-259, looked up, variant S215F)
# Global transcriptional …: B1 Global transcriptional … with D206A, S214F
# B7: V218D (protein, UniProt P39779 2-259, looked up, variant V218D)
# Global transcriptional …: B1 Global transcriptional … with D206A, V217D
# B8: S215T (protein, UniProt P39779 2-259, looked up, variant S215T)
# Global transcriptional …: B1 Global transcriptional … with D206A, S214T
# Assays:
# wild-type cells = conditions: excess nutrients; cited from earlier work
# [1] = tested on: ilvB promoter lacZ fusions; conditions: GTP limitation by addition of decoyinine; cited from earlier work
# CodY [2] = biological target: T1, CodY; experiment: Gel shift assay, stimulation of CodY binding to target DNA by effectors; set-up: species or system B. subtilis; conditions: for stimulation of CodY binding to new target genes and dpp promoter region: amino acids 10-30 mM
# Protocol: A test of whether BCAAs have any direct effect on CodY activity was performed. […] In all cases, the apparent dissociation constant for binding was substantially below the concentration of CodY inside the cell (4 μM, see below). […] By regulating gene expression in response to both the GTP level and the availability of certain amino acids, CodY can insure that the cell responds in a coherent way to many types of nutritional stress.
# The effects of GTP and BCAAs at different CodY targets can vary. At several target sites, BCAAs and GTP were each found to have small stimulatory effects on binding (in a gel shift assay), but the mixture strongly stimulates (FIG. 1). […] Some genes may respond to CodY in its GTP-bound conformation, other genes to CodY in its BCAA-bound conformation, and still other genes to CodY bound to both kinds of effectors. These variations could reflect differences in specificity of binding or differences in affinity of binding.
# The concentration dependence of stimulation of DNA binding by effectors is assessed. At the dpp promoter, GTP at 600 μM increased the fraction of DNA that was bound by a constant concentration of CodY (in a gel shift assay) from 10% to 50%. Titration assays of this type, using varying concentrations of GTP, isoleucine, and valine, provide a measure of the effective concentrations of each of these effectors.
# [3] = tested on: CodY (Staphylococcus aureus); experiment: EMSA; conditions: concentration giving shift; 2 mM GTP + 10 mM each Ile, Val, Leu
# CodY [4] = biological target: T1, CodY; conditions: cited from earlier work
# CodY [5] = biological target: T1, CodY; conditions: cited from earlier work; remark: listed apart in the source
# [6] = tested on: CodY R214E R214E (Bacillus subtilis); experiment: EMSA; conditions: GTP + ILV; also >500 without effectors
# [7] = tested on: CodY S215T S215T (Bacillus subtilis); experiment: EMSA
# CodY (Bacillus subtilis) = experiment: EMSA; conditions: 2 mM GTP + 10 mM each Ile, Leu, Val; 150 nM without effectors
# [8] = tested on: CodY A207D A207D (Bacillus subtilis); experiment: EMSA; conditions: GTP + ILV; also >500 without effectors
# dpp-lacZ = dpp-lacZ expression in vivo (β-galactosidase); conditions: for β-galactosidase expression (Miller units) in mid-exponential cells: dpp-lacZ; for derepression of expression in vivo: versus wild type
# dpp promoter region = experiment: Gel mobility shift assay of CodY binding to the dpp promoter region; conditions: CodY concentration that shifted 50% of the DNA
# [9] = read-out: Estimated KD (nM), +GTP, ILV, GTP (2 mM) and isoleucine, valine and leucine (10 mM each)
# [10] = read-out: Estimated KD (nM), No effectors
molecule,measurement,setting,value
C=C1O[C@@](CO)(n2cnc3c(N)ncnc32)[C@H](O)[C@@H]1O [decoyinine],sporulation of wild-type cells,wild-type cells,failed to sporulate efficiently unless decoyinine was added
same,induction of ilvB-lacZ fusions with or without T-box,[1],induced both fusions
CC(C)C[C@H](N)C(=O)O [leucine],stimulation of CodY binding to new target genes and dpp promoter region,CodY [2],not
CC(C)[C@H](N)C(=O)O [valine],stimulation of CodY binding to new target genes and dpp promoter region,CodY [2],stimulated significantly
nuc promoter region,binding,[3],160 nM
"Nc1nc2c(ncn2[C@@H]2O[C@H](COP(=O)(O)OP(=O)(O)OP(=O)(O)O)[C@@H](O)[C@H]2O)c(=O)[nH]1 [GTP, guanosine triphosphate]","binding to CodY compared with ATP, CTP or UTP",CodY [4],more avidly
same,fraction of DNA bound by a constant concentration of CodY,"CodY [2]; dpp promoter, GTP at 600 μM, 10% without",50%
same,effect on CodY binding at the yhdG regulatory region,"CodY [2]; yhdG regulatory region, alone or in combination",only a small effect
same,repression of dpp transcription by CodY,CodY [5]; 300 μM GTP (typical of early stationary phase cells),almost no repression
same,inhibition of dpp transcription by CodY,CodY [5]; 2 mM GTP,~80%
same,EC50,CodY [5]; read-out: GTP concentration giving 50% repression of transcription from the dpp promoter,~1500 µM
dpp promoter region,Kd,[6],> 0.5 µM
same,Kd,[7],> 0.5 µM
same,Kd,CodY (Bacillus subtilis),0.02 µM
same,Kd,[8],> 0.5 µM
CC[C@H](C)[C@H](N)C(=O)O [isoleucine],stimulation of CodY binding to new target genes and dpp promoter region,CodY [2],stimulated significantly
hla promoter region,binding,[3],160 nM
B1,derepression in vivo,dpp-lacZ,severe derepression
same,β-galactosidase expression (Miller units) in mid-exponential cells,dpp-lacZ,130 Miller units
same,Kd,dpp promoter region; [9],> 500 nM
same,Kd,dpp promoter region; [10],> 500 nM
B2,Kd,dpp promoter region; [9],100 to 200 nM
same,Kd,dpp promoter region; [10],250 to 500 nM
B3,derepression in vivo,dpp-lacZ,severe derepression
same,β-galactosidase expression (Miller units) in mid-exponential cells,dpp-lacZ,94 Miller units
same,Kd,dpp promoter region; [9],> 500 nM
same,Kd,dpp promoter region; [10],> 500 nM
B4,β-galactosidase expression (Miller units) in mid-exponential cells,dpp-lacZ,6 Miller units
same,Kd,dpp promoter region; [9],20 nM
same,Kd,dpp promoter region; [10],150 nM
B5,derepression of expression in vivo,dpp-lacZ,2 fold
B6,derepression in vivo,dpp-lacZ,severe derepression
same,β-galactosidase expression (Miller units) in mid-exponential cells,dpp-lacZ,12 Miller units
same,Kd,dpp promoter region; [9],350 to 400 nM
B7,derepression in vivo,dpp-lacZ,severe derepression
same,β-galactosidase expression (Miller units) in mid-exponential cells,dpp-lacZ,14 Miller units
same,Kd,dpp promoter region; [9],150 to 200 nM
B8,β-galactosidase expression (Miller units) in mid-exponential cells,dpp-lacZ,150 Miller units
same,derepression of expression in vivo,dpp-lacZ,2 fold
same,Kd,dpp promoter region; [9],> 500 nM

# Source: US20070142318A1, “Compositions, methods and kits for repressing virulence in gram positive bacteria” (priority 2004, published 2007)
